Source: patent publication US20210277101A1 (UNIVERSIT LAVAL, published 2021)

Columns and labels:
[1] = target: T1, S100A9 C-term (C) peptide (human); experiment: dot blot on PVDF
T1 construct: also called C-terminal peptide
T1 peptide: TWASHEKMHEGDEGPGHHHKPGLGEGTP
Experimental: FIG. 7 illustrates that 6B4 recognizes the C-terminal peptide of S100A9. Recombinant S100A8 and S100A9 (1 μg), PBS1×, N-terminal (N), Hinge (H) and C-terminal (C) peptides (10 and 50 μg) were put onto PVDF membrane to perform dot blot analysis using the mAb 6B4.
A dot blot was first performed to verify the ability of the mAb 6B4 to recognize these regions of S100A9. Briefly, 1 μg of recombinant S100A9 or S100A8 (negative control), and 10 and 50 μg of S100A9 peptides were deposited on PVDF membrane. The dried membrane was then blocked with TBS/0.1% Tween/milk 5% 30 min at room temperature under gentle agitation and labelled with 1 μg/ml of 6B4 mAb for 1 hr at RT. The membrane was extensively washed with TBS/0.1% Tween, then labelled with goat anti-mouse ( 1/20 000) in blocking buffer for 1 hr at RT under gentle agitation. The membrane was then extensively washed and visualized by enhanced chemiluminescence (ECL) as described by the manufacturer (PerkinElmer).

[2] = target: T2, S100A9 peptide C7 (human); experiment: direct ELISA on coated peptides
T2 construct: also called 10 last amino acid of the C-terminal region of S100A9
T2 peptide: HKPGLGEGTP

[3] = target: T3, S100A9 peptide C7a (human); experiment: direct ELISA on coated peptides
T3 peptide: PGLGEGTP

- binding result [1]: binds
- binding result [2]: binds
- binding result [3]: binds
B1: mouse monoclonal antibody 6B4 (antibody, IgG1, V domains shown)
VH: QVQLQQPGSELVRPGASVKLSCKASGYTFTTYWIHWVRQRPGQGLEWIGNIYPGGDSSNYDEKVKSRATLTVDTSSSTAYMQLSSLTSEDSAVYYCSRWGIWGQGTLVTVSA
VL: ENVLTQSPAIMSASPGEKVTMTCSARSSVSYVHWYQQKSNTSPKLWIYDTSKLASGVPGRFSGSGSGNSYSLTISSMEAEDVATYYCFQGSGYPLTFGAGTKLELK
notes: also called mAb 6B4; 6B4 mAb
